The results in this text go back to paper PMC3257569 (The Journal of Cell Biology, 2011).

The data set “negative staining and EM” concerns the molecule itself. Put plainly: negative staining and EM.
Data set [1] concerns the molecule itself. Put plainly: velocity sedimentation in a sucrose gradient.

B1: lsp1ΔN (domain or fragment, S. cerevisiae, UniProt Q12230 36-341, looked up)
chain: ASIASSFRKNAAGNFGPELARKLSQLVKTEKGVLRAMEVVASERREAAKQLSLWGADNDDDVSDVTDKLGVLIYELGELQDQFIDKYDQYRVTLKSIRNIEASVQPSRDRKEKITDEIAHLKYKDPQSTKIPVLEQELVRAEAESLVAEAQLSNITREKLKAAYSYMFDSLRELSEKFALIAGYGKALLELLDDSPVTPGEARPAYDGYEASRQIIMDAESALESWTLDMAAVKPTLSFHQTVDDVYEDEDGEEEEEPEIQNGDIPGQVVEEEEVEWTTEVPVDDEAHEADHHVSQNGHTSGSENI
For B1, the binding result in “negative staining and EM” was “binds”.

B2: recombinant Lsp1 (natural protein, S. cerevisiae, UniProt Q12230 1-341, looked up)
chain: MHRTYSLRNQRAPTAAELQAPPPPPSSTKSKFFGKASIASSFRKNAAGNFGPELARKLSQLVKTEKGVLRAMEVVASERREAAKQLSLWGADNDDDVSDVTDKLGVLIYELGELQDQFIDKYDQYRVTLKSIRNIEASVQPSRDRKEKITDEIAHLKYKDPQSTKIPVLEQELVRAEAESLVAEAQLSNITREKLKAAYSYMFDSLRELSEKFALIAGYGKALLELLDDSPVTPGEARPAYDGYEASRQIIMDAESALESWTLDMAAVKPTLSFHQTVDDVYEDEDGEEEEEPEIQNGDIPGQVVEEEEVEWTTEVPVDDEAHEADHHVSQNGHTSGSENI
Turning to B2, in data set [1], the binding result is reported as “binds”.

B3: pil1ΔN (domain or fragment, S. cerevisiae, UniProt P53252 36-339, looked up)
chain: GGLAYSFRRSAAGAFGPELSRKLSQLVKIEKNVLRSMELTANERRDAAKQLSIWGLENDDDVSDITDKLGVLIYEVSELDDQFIDRYDQYRLTLKSIRDIEGSVQPSRDRKDKITDKIAYLKYKDPQSPKIEVLEQELVRAEAESLVAEAQLSNITRSKLRAAFNYQFDSIIEHSEKIALIAGYGKALLELLDDSPVTPGETRPAYDGYEASKQIIIDAESALNEWTLDSAQVKPTLSFKQDYEDFEPEEGEEEEEEDGQGRWSEDEQEDGQIEEPEQEEEGAVEEHEQVGHQQSESLPQQTTA
On to B3, for which the binding result in “negative staining and EM” was “binds”.

B4: recombinant Pil1 (natural protein, S. cerevisiae, UniProt P53252 1-339, looked up)
chain: MHRTYSLRNSRAPTASQLQNPPPPPSTTKGRFFGKGGLAYSFRRSAAGAFGPELSRKLSQLVKIEKNVLRSMELTANERRDAAKQLSIWGLENDDDVSDITDKLGVLIYEVSELDDQFIDRYDQYRLTLKSIRDIEGSVQPSRDRKDKITDKIAYLKYKDPQSPKIEVLEQELVRAEAESLVAEAQLSNITRSKLRAAFNYQFDSIIEHSEKIALIAGYGKALLELLDDSPVTPGETRPAYDGYEASKQIIIDAESALNEWTLDSAQVKPTLSFKQDYEDFEPEEGEEEEEEDGQGRWSEDEQEDGQIEEPEQEEEGAVEEHEQVGHQQSESLPQQTTA
On to B4, for which the binding result in data set [1] is on record as “binds”.

B5: recombinant pil1(4D) (natural protein, S. cerevisiae, UniProt P53252 1-339, looked up)
chain: MHRTYSLRNSRAPTASQLQNPPPPPSTTKGRFFGKGGLAYSFRRDAAGAFGPELSRKLDQLVKIEKNVLRSMELTANERRDAAKQLSIWGLENDDDVSDITDKLGVLIYEVSELDDQFIDRYDQYRLTLKSIRDIEGSVQPSRDRKDKITDKIAYLKYKDPQSPKIEVLEQELVRAEAESLVAEAQLSNITRSKLRAAFNYQFDSIIEHSEKIALIAGYGKALLELLDDDPVDPGETRPAYDGYEASKQIIIDAESALNEWTLDSAQVKPTLSFKQDYEDFEPEEGEEEEEEDGQGRWSEDEQEDGQIEEPEQEEEGAVEEHEQVGHQQSESLPQQTTA
As for B5, the binding result in “negative staining and EM” was “binds”.
